For data set [1], the system named is Dpb11;RPA (Saccharomyces cerevisiae;Saccharomyces cerevisiae). In words: single-molecule fluorescence (C-Trap kymographs). The conditions noted are these: 5' dual-biotin at both ends; Imaging: 25 mM Tris-HCl pH 7.5, 100 mM NaCl, 10 mM Mg acetate, 2 mM TCEP, 0.1 mM EDTA, 0.04 mg/mL BSA, 1% glycerol, oxygen scavengers; room temperature, no ….
For data set [2], the system named is Dpb11;Mec1;Ddc2;RPA (Saccharomyces cerevisiae;Saccharomyces cerevisiae;Saccharomyces cerevisiae;Saccharomyces cerevisiae). Put plainly: single-molecule fluorescence (C-Trap kymographs). The conditions noted are these: 5' dual-biotin at both ends; Imaging: 25 mM Tris-HCl pH 7.5, 100 mM NaCl, 10 mM Mg acetate, 2 mM TCEP, 0.1 mM EDTA, 0.04 mg/mL BSA, 1% glycerol, oxygen scavengers; room temperature, no …; scale: % of Mec1-Ddc2 binding events at gap junctions.

The target in data set [3] is T1, Sc Dpb11 recombinant protein (unlabeled) (S. cerevisiae), P47027.
T1 chain: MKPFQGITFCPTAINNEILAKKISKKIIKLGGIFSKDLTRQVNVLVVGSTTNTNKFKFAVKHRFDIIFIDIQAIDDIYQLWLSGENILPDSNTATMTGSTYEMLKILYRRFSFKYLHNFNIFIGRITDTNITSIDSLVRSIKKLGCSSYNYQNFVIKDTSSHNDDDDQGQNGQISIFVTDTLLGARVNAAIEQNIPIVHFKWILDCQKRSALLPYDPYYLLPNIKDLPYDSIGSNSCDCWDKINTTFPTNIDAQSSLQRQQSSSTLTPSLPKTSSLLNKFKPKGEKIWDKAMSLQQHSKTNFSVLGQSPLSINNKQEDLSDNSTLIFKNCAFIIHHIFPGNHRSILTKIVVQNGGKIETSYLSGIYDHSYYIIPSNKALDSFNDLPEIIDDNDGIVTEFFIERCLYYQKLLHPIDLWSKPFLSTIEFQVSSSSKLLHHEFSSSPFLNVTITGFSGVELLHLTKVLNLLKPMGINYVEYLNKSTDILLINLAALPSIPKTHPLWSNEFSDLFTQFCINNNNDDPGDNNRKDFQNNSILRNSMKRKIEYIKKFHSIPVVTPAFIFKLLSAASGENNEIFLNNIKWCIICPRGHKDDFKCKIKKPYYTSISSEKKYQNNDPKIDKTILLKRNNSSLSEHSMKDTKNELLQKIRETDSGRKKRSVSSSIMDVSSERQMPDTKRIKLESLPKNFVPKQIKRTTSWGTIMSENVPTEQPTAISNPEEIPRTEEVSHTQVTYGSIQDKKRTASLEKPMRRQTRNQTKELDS
Put plainly: mass photometry; 50 nM Dpb11, label-free, MP Buffer (25 mM Tris-HCl pH 7.5, 250 mM NaCl, 10 mM Mg(CH3COO)2, 2 mM TCEP, 0.1 mM EDTA, 4% glycerol); monomer and dimer. The conditions noted are these: remark: other sources report otherwise.

In data set [4] the target is T1, Sc Dpb11 recombinant protein …. In words: mass photometry; 150 nM Dpb11, label-free, MP Buffer (25 mM Tris-HCl pH 7.5, 250 mM NaCl, 10 mM Mg(CH3COO)2, 2 mM TCEP, 0.1 mM EDTA, 4% glycerol); monomer and dimer. The conditions noted are these: remark: other sources report otherwise.
Data set [5] deals with T2, Mec1-Ddc2^AF647 (Mec1(a)-Ddc2 labeled with Alexa Fluor 647) (S. cerevisiae, UniProt P38111 1-2368; Q04377 1-747, fluorophore AF647 (NHS ester) at the N-terminal amine of Mec1-Ddc2; which chain is not told | fluorophore AF647 (NHS ester) at the N-terminal amine of Mec1-Ddc2; which chain is not told).
T2 construct: Mec1, S. cerevisiae; gene synthesized by Biomatik; Ddc2, S. cerevisiae; gene by PCR from genomic DNA of strain S288C; Only the Mec1(b) plasmid was deposited (Addgene 240737); Mec1(a) differs in the C-terminal tag region; also called Sc Mec1(a)-Ddc2 recombinant protein; copies: 2 + 2
Put plainly: single-molecule fluorescence imaging (C-Trap, optical tweezers with confocal microscopy); 30 nM fluorescent Mec1-Ddc2, 200 nM unlabeled Dpb11 and 100 nM unlabeled RPA on 3 kb-gapped DNA; distribution of initial binding positions of Mec1-Ddc2; SM Buffer, room temperature, no flow. The conditions noted are these: both partners purified.

The target in data set [6] is T3, Mec1-Ddc2^LD555 (Mec1(b)-Ddc2 labeled with LD555) (S. cerevisiae, UniProt P38111 1-2368; Q04377 1-747, fluorophore LD555 (NHS ester) at the N-terminal amine of Mec1-Ddc2; which chain is not told | fluorophore LD555 (NHS ester) at the N-terminal amine of Mec1-Ddc2; which chain is not told).
T3 construct: Mec1, S. cerevisiae; gene synthesized by Biomatik; Ddc2, S. cerevisiae; gene by PCR from genomic DNA of strain S288C; also called fluorescent Mec1-Ddc2; Sc Mec1(b)-Ddc2 recombinant protein; copies: 2 + 2
The data set is described as above. The conditions noted are these: both partners purified.

Data set [7] deals with T3, Mec1-Ddc2^LD555 (Mec1(b)-Ddc2 labeled …). In words: single-molecule fluorescence imaging, dual-color colocalization (C-Trap); 10 nM Mec1-Ddc2^LD555, 20 nM Dpb11^LD655, 180 nM unlabeled Dpb11 and 100 nM unlabeled RPA on 3 kb-gapped DNA; SM Buffer, room temperature, no flow. The conditions noted are these: both partners purified.

The term stoichiometry N denotes the number of molecules, sites or subunits per partner or assembly.

With 3 kb-gapped 19 kb DNA, the binding signal (% of binding events at gap junctions) in data set [1] amounted to 53. The molecule also came in with a binding signal in data set [2] of 50.

B1: Sc Dpb11 recombinant protein (unlabeled), P47027 1-764 (natural protein)
chain: T1 chain
As for B1, in data set [3], the percent of particles as dimer was determined as 64%, the percent of particles as monomer was 35% and the stoichiometry N was found to be 2. In data set [4], the percent of particles as dimer was 98% and the stoichiometry N worked out at 2.

B2: Sc Dpb11 recombinant protein (unlabeled) (natural protein, S. cerevisiae, UniProt P47027 1-764, looked up)
chain: T1 chain
notes: Dpb11, S. cerevisiae strain S288C gene; Eluted from the beads with 3xFLAG peptide; no removal of the tag is described; By mass photometry a mixture of monomer and dimer; also called unlabeled Dpb11
B2: the binding result in data set [5] and in data set [6] was “binds” in each case.

B3: Dpb11^LD655 (natural protein, S. cerevisiae, UniProt P47027 1-764, looked up)
chain: T1 chain
modifications: fluorophore LD655 (NHS ester) at the N-terminal amine
notes: Dpb11, S. cerevisiae strain S288C gene; Same protein as m1, labeled; In the dual-color experiment 20 nM of it stood with 180 nM unlabeled Dpb11; also called fluorescent Dpb11; Dpb11 labeled with LD655; source: S. cerevisiae strain OY001, GAL1/10 overexpression, purified (FLAG-Ab beads), then labeled with LD655 NHS
Regarding B3, the binding result in data set [7] was “binds”.

The values above are taken from PMC13539869, “Dpb11 facilitates the colocalization of Mec1-Ddc2 with its activators on gapped DNA” (Cell reports, 2026).
